Source: the supplement of paper PMC11196671
± gives the standard deviation of the averaged measurements.

Assay: PET hydrolysis product formed (TPA+MHET+BHET, UV-Vis) per mg enzyme (mmol/mg enzyme); higher = more PET depolymerisation activity; extreme values may be limits of the assay
Conditions: 24 h
Procedure: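 Purified PET hydrolases, 2.5 ug enzyme on 3.5 mg amorphous PET film (aFilm) or crystalline PET powder (cryPow) in 0.5 mL of 50 mM buffer (NaCitrate pH 4.5/5.5, NaPhosphate 6.5/7.5, glycine 8.5/9.5) at 60 or 70 C with shaking for 24 h. Total aromatic product by UV-Vis (260/280 nm, blank-subtracted, normalised per mg enzyme) and individual TPA, MHET, BHET concentrations by UHPLC-DAD at 240 nm; duplicate reactions.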

[1] = PET substrate: aFilm, 60 °C, pH 4.5
[2] = PET substrate: aFilm, 60 °C, pH 5.5
[3] = PET substrate: aFilm, 60 °C, pH 6.5
[4] = PET substrate: aFilm, 60 °C, pH 7.5
[5] = PET substrate: aFilm, 60 °C, pH 8.5
[6] = PET substrate: aFilm, 60 °C, pH 9.5
[7] = PET substrate: aFilm, 70 °C, pH 4.5
[8] = PET substrate: aFilm, 70 °C, pH 5.5
[9] = PET substrate: aFilm, 70 °C, pH 6.5
[10] = PET substrate: aFilm, 70 °C, pH 7.5
[11] = PET substrate: aFilm, 70 °C, pH 8.5
[12] = PET substrate: aFilm, 70 °C, pH 9.5
[13] = PET substrate: cryPow, 60 °C, pH 4.5
[14] = PET substrate: cryPow, 60 °C, pH 5.5
[15] = PET substrate: cryPow, 60 °C, pH 6.5
[16] = PET substrate: cryPow, 60 °C, pH 7.5
[17] = PET substrate: cryPow, 60 °C, pH 8.5
[18] = PET substrate: cryPow, 60 °C, pH 9.5
[19] = PET substrate: cryPow, 70 °C, pH 4.5
[20] = PET substrate: cryPow, 70 °C, pH 5.5
[21] = PET substrate: cryPow, 70 °C, pH 6.5
[22] = PET substrate: cryPow, 70 °C, pH 7.5
[23] = PET substrate: cryPow, 70 °C, pH 8.5
[24] = PET substrate: cryPow, 70 °C, pH 9.5

Sequence	PET hydrolysis product formed [1]	PET hydrolysis product formed [2]	PET hydrolysis product formed [3]	PET hydrolysis product formed [4]	PET hydrolysis product formed [5]	PET hydrolysis product formed [6]	PET hydrolysis product formed [7]	PET hydrolysis product formed [8]	PET hydrolysis product formed [9]	PET hydrolysis product formed [10]	PET hydrolysis product formed [11]	PET hydrolysis product formed [12]	PET hydrolysis product formed [13]	PET hydrolysis product formed [14]	PET hydrolysis product formed [15]	PET hydrolysis product formed [16]	PET hydrolysis product formed [17]	PET hydrolysis product formed [18]	PET hydrolysis product formed [19]	PET hydrolysis product formed [20]	PET hydrolysis product formed [21]	PET hydrolysis product formed [22]	PET hydrolysis product formed [23]	PET hydrolysis product formed [24]
QTNPYARGPNPTAASLEASAGPFTVRSFTVSRPSGYGAGTVYYPTNAGGTVGAIAIVPGYTARQSSIKWWGPRLASHGFVVITIDTNSTFDYPSSRSSQQMAALRQVASLNGDSSSPIYGKVDTARMGVMGHSMGGGASLRSAANNPSLKAAIPQAPWDSQTNFSSVTVPTLIFACENDSIAPVNSHALPIYDSMSRNAKQFLEINGGSHSCANSGNSNQALIGKKGVAWMKRFMDNDTRYSTFACENPNSTAVSDFRTANCS [DuraPETase]	0	0	0	0.0929 ± 0.001	0.0536 ± 0.017	0.126 ± 0.074	0	0	0	0.00371 ± 0.0053	0.00439 ± 0.0062	0.0201 ± 0.0018	0	0	0.0167 ± 0.003	0.0809 ± 0.0013	0.0578 ± 0.007	0.0891 ± 0.015	0	0	0	0.0465 ± 0.014	0.0236 ± 0.0064	0
SNPYQRGPNPTRSALTADGPFSVATYTVSRLSVSGFGGGVIYYPTGTSLTFGGIAMSPGYTADASSLAWLGRRLASHGFVVLVINTNSRFDGPDSRASQLSAALNYLRTSDPSAVRARLDANRLAVAGHSMGGGATLRIAEQNPSLKAAIPLTPWHTQKTFNTSVPVLIVGAEADTVAPVSQHAIPFYQNLPSTTPKVYVELCNASHIAPNSNNAAISVYTISWMKLWVDNDTRYRQFLCNVNDPALCDFRTNNRHCQ [LCC-ICCG DAQI]	0.0166 ± 0.00087	0.125 ± 0.026	0.232 ± 0.055	1.37 ± 0.25	0.167 ± 0.0061	0.87 ± 0.012	0	0.0923 ± 0.0019	0.205 ± 0.025	2.08 ± 0.32	0.1 ± 0.021	0.859 ± 0.11	0.0113 ± 0.00097	0.0632 ± 0.0075	0.0902 ± 0.0042	0.173 ± 0.029	0.0738 ± 0.0022	0.1163 ± 0.00055	0	0.0244 ± 0.0029	0.0648 ± 0.012	0.193 ± 0.02	0.0669 ± 0.0013	0.132 ± 0.011
SNPYQRGPNPTRSALTADGPFSVATYTVSRLSVSGFGGGVIYYPTGTSLTFGGIAMSPGYTADASSLAWLGRRLASHGFVVLVINTNSRFDGPDSRASQLSAALNYLRTSSPSAVRARLDANRLAVAGHSMGGGGTLRIAEQNPSLKAAVPLTPWHTDKTFNTSVPVLIVGAEADTVAPVSQHAIPFYQNLPSTTPKVYVELCNASHIAPNSNNAAISVYTISWMKLWVDNDTRYRQFLCNVNDPALCDFRTNNRHCQ [LCC-ICCG]	0.00176 ± 0.0035	0.126 ± 0.044	0.327 ± 0.047	1.42 ± 0.13	0.142 ± 0.024	0.885 ± 0.11	0	0.109 ± 0.03	0.165 ± 0.029	1.92 ± 0.32	0.107 ± 0.027	0.901 ± 0.076	0	0.0652 ± 0.012	0.09 ± 0.013	0.184 ± 0.032	0.0728 ± 0.0063	0.125 ± 0.028	0	0.031 ± 0.0079	0.0781 ± 0.017	0.2 ± 0.024	0.0667 ± 0.0095	0.131 ± 0.018
SNPYQRGPNPTRSALTADGPFSVATYTVSRLSVSGFGGGVIYYPTGTSLTFGGIAMSPGYTADASSLAWLGRRLASHGFVVLVINTNSRFDGPDSRASQLSAALNYLRTSSPSAVRARLDANRLAVAGHSMGGGGTLRIAEQNPSLKAAVPLTPWHTDKTFNTSVPVLIVGAEADTVAPVSQYAIPFYQNLPSTTPKVYVELCNASHIAPNSDNAAISVYTISWMKLWVDNDTRYRQFLCNVNDPALCDFRTNNRHCQ [LCC-A2]	0.0551 ± 0.011	0.331 ± 0.024	0.484 ± 0.058	2.22 ± 0.15	0.195 ± 0.039	0.963 ± 0.16	0	0.181 ± 0.01	0.361 ± 0.048	2.87 ± 0.14	0.171 ± 0.012	0.934 ± 0.039	0.0357 ± 0.0049	0.0766 ± 0.0022	0.152 ± 0.0036	0.261 ± 0.063	0.0909 ± 0.014	0.195 ± 0.032	0	0.0541 ± 0.0076	0.139 ± 0.014	0.334 ± 0.043	0.0995 ± 0.007	0.205 ± 0.0083
SNPYQRGPNPTRSALTADGPFSVRTYTISRLSVSGFGGGVIYYPTGTSLTFGGIAMSPGYTADASSLAWLGRRLASHGFVVLVINTNSRFDGPDSRASQLSAALNYLRTSSPSAVRARLDANRLAVAGHSMGGGGTLRIAEQNPSLKAAVPLTPWHTDKTFNTSVPVLIVGAEADTVAPVSQHAIPFYQNLPSTTPKVYVELCNASHIAPNSPNAAISVYTISWMKLWVDNDTRYRQFLCNVNDPALCDFRTNNRHCQ [LCC-ICCG RIP]	0.029 ± 0.018	0.0802 ± 0.0094	0.202 ± 0.029	0.775 ± 0.2	0.127 ± 0.0045	0.684 ± 0.33	0	0.103 ± 0.02	0.181 ± 0.01	1.26 ± 0.084	0.1 ± 0.01	0.65 ± 0.11	0.0235 ± 0.002	0.0628 ± 0.0065	0.082 ± 0.00092	0.113 ± 0.0013	0.0714 ± 0.033	0.0784 ± 0.011	0	0.0369 ± 0.0017	0.0809 ± 0.0019	0.162 ± 0.034	0.0631 ± 0.0059	0.0938 ± 0.0042
SNPYQRGPNPTRSALTATGPFSVATYTVSRLLVSGFGGGVIYYPTGTSLTFGGIAMSPGYTADASSLAWLGRRLASHGFVVLVINTNSRFDGPDSRARQLSAALNYLRTSSPSAVRARLDANRLAVAGHSMGGGGTLRIAEQNPSLKAAVPLTPWHPDKTFNTSVPVLIVGAQADTVAPVSQHAIPFYQNLPSTTPKVYVELCNASHIAPNSPNAAISVYTISWMKLWVDNDTRYRQFLCNVNDPALCDFRTNNRHCQ [LCC-ICCG I6M]	0.0326 ± 0.002	0.147 ± 0.082	0.223 ± 0.032	1.32 ± 0.091	0.169 ± 0.013	0.577 ± 0.0065	0	0.105 ± 0.017	0.0963 ± 0.031	0.788 ± 0.054	0.0775 ± 0.0074	0.402 ± 0.064	0.01995 ± 0.00015	0.0583 ± 0.0049	0.0726 ± 0.0072	0.0808 ± 0.017	0.0461 ± 0.015	0.0598 ± 0.019	0	0.0302 ± 0.0017	0.05 ± 0.0014	0.122 ± 0.028	0.0495 ± 0.023	0.0468 ± 0.0039
